The text below walks through data of patent US20090181003A1, “Regulation of S6 Kinsase Protein Activity and Related Methods” (priority 2005, published 2009).

Assay [1] concerns recombinant S6K1. Briefly: In vitro acetylation with 14C labelled acetyl coenzyme A, S6K1. The format is biochemical. The note with it: 1 μg recombinant S6K1, HAT buffer with 14C AcCoA. Here is the method:
(§1) In FIG. 2A, recombinant S6 kinases were acetylated in vitro using the purified acetyltransferase domain of p300 or full length PCAF and ^14C-labelled acetyl CoA. Proteins were resolved by SDS-PAGE and acetylated proteins were analysed by phosphorimaging (Bio-rad). In FIG. 2B, recombinant S6K2 or GST were subject to in vitro acetylation reactions with p300 and 14C AcCoA. Recombinant PKB/Akt, PKCa, PDK1 and PI3K (p85a/p110a) were purified using baculovirus expression system. In vitro acetylation assay was carried out as previously described. In FIG. 2D, HEK 293 cells were transfected with S6 kinases in the absence or presence of Gal4-p300 as shown. Cells were treated with medium containing either solvent control or TSA to a final concentration of 660 nM for twelve hours prior to harvesting. Recombinant S6 kinases were immunoprecipitated using the EE-antibody and acetylated S6 kinase was detected by western blotting with polyclonal acetylated lysine antibodies (Upstate). The level of immunoprecipitated S6K1 and S6K2 was analysed by reprobing the membranes with specific antibodies. The expression of Gal4-p300 was tested in total lysates using anti-Gal4 antibodies.
(§2) Since S6Ks can interact with a region within, or adjacent to the acetyltransferase domain of p300 we hypothesized that they may in fact be targeted by its enzymatic activity. […] We detected weak, but reproducible acetylation of PKCa.

The target of assay [2] is T1, S6K2 (Homo sapiens, UniProt Q9UBS0).
T1 construct: made in house; GST-p300 fragments: bacteria
Nature of the assay: In vitro GST pulldown of p300 GST-fusion fragments with recombinant S6K2. The format is binding. To be noted: GST fusion proteins on glutathione beads, highly purified recombinant S6K2. The text has this:
In FIG. 1A, S6K1 and S6K2 were immunoprecipitated from MCF-7 cells using polyclonal antibodies or pre-immune serum control. Co-immunoprecipitated p300 was detected by western blotting with specific antibody. In FIG. 1B, 293 cells were cotransfected with either EE-S6K1 and Gal4-p300 or empty vector and Gal4-p300. S6K1 was immunoprecipitated using anti-EE antibody and associated p300 was detected by western blotting with anti-Gal4 antibody. Input: approximately ten percent of soluble lysate. In FIG. 1C, NIH-3T3 cells were transfected with empty vector or EE-S6K2. Anti-EE immunoprecipitates were subjected to western blotting with anti-p300 antibody. Input: approximately one percent of soluble lysate. […] Endogenous S6K1 and S6K2 were immunoprecipitated from MCF-7 cells using polyclonal antibodies. Associated P/CAF was detected by western blotting with polyclonal antibodies (Upstate). In FIG. 1E, the full length p300 was used to produce several GST-fusion fragments as shown (Hasan et al. (2001) Mol. Cell. 7, 1221-1231). Expressed fusion proteins were coupled to glutathione beads and used in an in vitro GST pulldown assay with recombinant S6K2. After extensive washing, bound S6K2 was detected by western blotting. […]

Assay [3] has as its system recombinant S6K2. Nature of the assay: In vitro acetylation with 14C labelled acetyl coenzyme A, S6K2. The format is biochemical. The note with it: 1 μg recombinant S6K2, HAT buffer with 14C AcCoA. Here is the method:
as §1, §2

T1 sequence (Q9UBS0 with tags, fused parts or gaps A420V): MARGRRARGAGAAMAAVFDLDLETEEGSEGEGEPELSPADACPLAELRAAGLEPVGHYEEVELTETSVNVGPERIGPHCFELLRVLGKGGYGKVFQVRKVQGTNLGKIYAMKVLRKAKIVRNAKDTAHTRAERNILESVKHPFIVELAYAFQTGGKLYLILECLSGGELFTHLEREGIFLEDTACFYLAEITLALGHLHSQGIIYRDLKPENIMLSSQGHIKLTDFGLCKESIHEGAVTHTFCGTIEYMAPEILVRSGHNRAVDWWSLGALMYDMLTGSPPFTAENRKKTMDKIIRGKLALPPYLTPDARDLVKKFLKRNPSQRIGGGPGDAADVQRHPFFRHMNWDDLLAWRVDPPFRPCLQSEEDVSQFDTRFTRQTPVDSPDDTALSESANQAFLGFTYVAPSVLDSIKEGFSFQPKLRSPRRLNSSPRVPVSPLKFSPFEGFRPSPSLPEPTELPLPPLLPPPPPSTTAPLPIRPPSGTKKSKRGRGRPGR

B1: p300 domain 4: active domain of p300 acetyltransferase, amino acid 1,459 to 1,892 (SEQ ID NO: 6), contains part of the acetyltransferase domain (protein, listed as Homo sapiens)
chain: KPKRLQEWYKKMLDKAVSERIVHDYKDIFKQATEDRLTSAKELPYFEGDFWPNVLEESIKELEQEEEERKREENTSNESTDVTKGDSKNAKKKNNKKTSKNKSSLSRGNKKKPGMPNVSNDLSQKLYATMEKHKEVFFVIRLIAGPAANSLPPIVDPDPLIPCDLMDGRDAFLTLARDKHLEFSSLRRAQWSTMCMLVELHTQSQDRFVYTCNECKHHVETRWHCTVCEDYDLCITCYNTKNHDHKMEKLGLGLDDESNNQQAAATQSPGDSRRLSIQRCIQSLVHACQCRNANCSLPSCQKMKRVVQHTKGCKRKTNGGCPICKQLIALCCYHAKHCQENKCPVPFCLNIKQKLRQQQLQHRLQQAQMLRRRMASMQRTGVVGQQQGLPSPTPATPTTPTGQQPTTPQTPQPTSQPQPTPPNSMPPYLPRTQA
modifications: GST fusion partner
B1: the “acetylation of S6K1 (14C acetyl incorporation)” value in assay [1] is given as “acetyl groups were indeed incorporated”. For the same molecule, the “binding of S6K2 to p300 domains” value in assay [2] is on record as “selective binding”. The “acetylation of S6K2 (14C acetyl incorporation)” value in assay [3] is listed as “acetyl groups were indeed incorporated”.
